Experimental data taken from patent US12356911B2, “Group of UDP-glycosyltransferase for catalyzing carbohydrate chain elongation and application thereof” (GSYNBIOT (SHANGHAI) CO., LTD, priority 2017, dated 2025).

Key:
Assay type in all cases: biochemical
[1] = In vitro transglycosylation at C-20, Rd as glycosyl acceptor, UDP-xylose as donor; details: crude enzyme (E. coli lysate supernatant); TLC and HPLC, FIG. 2, FIG. 4
[2] = In vitro transglycosylation at C-20, CK as glycosyl acceptor, UDP-glucose as donor; details: crude enzyme (E. coli lysate supernatant); TLC/HPLC, FIG. 2, 3, 12, 16
From the text: (§1) Cell lysate of recombinant E. coli with empty vector pET28a was used as a control.
As shown in FIG. 16: Protopanaxadiol Ginsenoside CK is used as a glycosyl acceptor, and UDP-glucose is used as a glycosyl donor.

[3] = In vitro transglycosylation at C-20, F1 as glycosyl acceptor, UDP-glucose as donor; details: crude enzyme (E. coli lysate supernatant); TLC and HPLC, FIG. 5, FIG. 6
[4] = In vitro transglycosylation at C-20, Rd as glycosyl acceptor, UDP-glucose as donor; details: crude enzyme (E. coli lysate supernatant); TLC/HPLC, FIG. 2, 3, 11
From the text: as §1

[5] = In vitro transglycosylation at C-20, CK as glycosyl acceptor, UDP-arabinose as donor; details: crude enzyme (E. coli lysate supernatant); TLC, FIG. 17

B1: GT29-32: Ginseng UDP-glycosyltransferase, 442 amino acids, SEQ ID NO: 4 (protein)
chain: MDNQEGRISIALLPFLAHGHISPFFELAKQLAKRNCNVFLCSTPINLSSIKNKDSSASIKLVELHLPSSPDLPPHYHTTNGLPSHLMVPLRNAFETAAPTFSEILKTLNPDLLIYDFNPSWAPEIASSHNIPAVYFLTSAAATSSMGLHAFKNSGEKYPFPDFYDNSNITPEPPSADKMKLFHDFVACFKRSCDIILIKSFRELEGKYIDFLSTLSKKTLVPVGPLVQDPMGHDEDPKTGHLINWLDKRAESTVVFVCFGSEYFPSNEELEELAIGLEISMVSFILAVRFPEGEKKGILPEGFVQRVGDRGLVVEGWAPQARILGHSSTGGFVSHCGWSSIMESVKFGVPVIAMARHLDQPLNAKLAAEVGVGMEVMRDENGKYKREAIAEVIRKVVMEKNGEVMRRKARELSEKMKEIGEQLIDRAVEELVQICKKKKDEQ
modifications: misc_feature - GT29-32; Panax ginseng
- product formation from Rd and UDP-xylose (one product with the mobility of Rb3) [1]: can catalyze Rd to produce three products
- product formation from CK and UDP-glucose (Gypenoside LXXV) [2]: can catalyze the formation of a new product
- product formation from F1 and UDP-glucose [3]: can catalyze the formation of a new product
- product formation from Rd and UDP-glucose (Rb1) [4]: can catalyze the formation of Rb1
- product formation from CK and UDP-arabinose (Ginsenoside F3) [5]: can catalyze the first glycosyl of C-20 of CK to extend an arabinosyl to generate Ginsenoside F3
